From publication PMC3760141 (Cell reports, 2013)
Positions count from the first letter of the chain named. Numbers in names are those of the source.

B1: p202 HIN2 (K244-K445) (domain or fragment, mouse, UniProt Q9R002 244-445, looked up)
chain: KLLKESFEGDGYHKGPKQVVALKATKLFTYDSIKSKKMFHATVATDTEFFRVMVFEENLEKKFIPGNTIALSDYFGMYGSLAIHEYSSVSEVKSQNKEDSSSSDERLIEHLKICDLHLQTKERLVDGEFKVYRKSTGNNCICYGIWDDTGAMKVVVSGQLTSVNCEIGNTIRLVCFELTSNADEWFLRSTRYSYMEVIMPEK
B2: p202 HIN2 R376E (domain or fragment, mouse, UniProt Q9R002 244-445, looked up)
chain: B1 chain with R133E
B3: mouse AIM2 HIN (domain or fragment, UniProt Q91VJ1 144-341, looked up)
chain: MVAEQEAIREDLQKDPLVVTVLKAINPFECETQEGRQEIFHATVATETDFFFVKVLNAQFKDKFIPKRTIKISNYLWHSNFMEVTSSSVVVDVESNHEVPNNVVKRARETPRISKLKIQPCGTIVNGLFKVQKITEEKDRVLYGIHDKTGTMEVLVLGNPSKTKCEEGDKIRLTFFEVSKNGVKIQLKSGPCSFFKVI
B4: full-length p202 (purified) (natural protein, mouse, UniProt Q9R002 1-445, looked up)
chain: MSNRNLRSSTNSEFSEGQHQTPSSDSSGHGEDQPQASPGPNKKSHTPKKNISKGAVLHEKPMTVMVLTATEPFNYKEGKENMFHATVATESQYYRVKVFNMDLKEKFTENKFITISKYFNSSGILEINETATVSEAAPNQIIEVPKNIIRSAKETLKISKIKELDSGTLIYGVFAVEKKKVNDKSITFKIKDNEDNIKVVWDKKQHNINYEKGDKLQLFSFHLRKGNGKPILHSGNHSFIKGEKLLKESFEGDGYHKGPKQVVALKATKLFTYDSIKSKKMFHATVATDTEFFRVMVFEENLEKKFIPGNTIALSDYFGMYGSLAIHEYSSVSEVKSQNKEDSSSSDERLIEHLKICDLHLQTKERLVDGEFKVYRKSTGNNCICYGIWDDTGAMKVVVSGQLTSVNCEIGNTIRLVCFELTSNADEWFLRSTRYSYMEVIMPEK
B5: p202, endogenous in bone marrow-derived macrophages (natural protein, UniProt Q9R002 1-445, looked up)
chain: B4 chain

Legend:
mouse AIM2 HIN = biological target: B3; assay: ITC
SEC-MALS = biological target: the molecule itself; assay: SEC-MALS
p202 HIN2 (K244-K445) = biological target: B1; assay: ITC
cross-linking = biological target: the molecule itself; assay: cross-linking

B1
stoichiometry N (mouse AIM2 HIN): 2 p202 HIN2 per AIM2 HIN | stoichiometry N (SEC-MALS): 4

B2
stoichiometry N (SEC-MALS): 2

B3
Kd (p202 HIN2 (K244-K445)): 12.6 µM

B4
stoichiometry N (SEC-MALS): 4

B5
stoichiometry N (cross-linking): 4
